# Read-outs that look alike come from different tables or passages of the source.
# Legend:
# Test in all cases: ELISA, coated protein, antibody at 4 µg/mL
# human BMP4 protein [1] = biological target: T1, human BMP4 protein (human, UniProt P12644 293-408)
# T1 construct: Bought
# T1 sequence (looked up): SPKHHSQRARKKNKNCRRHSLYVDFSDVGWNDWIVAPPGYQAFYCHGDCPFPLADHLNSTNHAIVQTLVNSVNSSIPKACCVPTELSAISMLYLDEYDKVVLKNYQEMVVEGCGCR
# [2] = biological target: human AMH protein (human) (UniProt P03971)
# human GDF3 protein [3] = biological target: T2, human GDF3 protein (human, UniProt Q9NR23 251-364, limits assumed)
# T2 construct: Bought
# T2 sequence (looked up): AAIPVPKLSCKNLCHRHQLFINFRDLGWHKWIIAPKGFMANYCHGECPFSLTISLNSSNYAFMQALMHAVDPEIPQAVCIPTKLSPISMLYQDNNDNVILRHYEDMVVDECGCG
# human GDNF protein [4] = biological target: T3, human GDNF protein (human, UniProt P39905 78-211)
# T3 construct: Bought
# T3 sequence (looked up): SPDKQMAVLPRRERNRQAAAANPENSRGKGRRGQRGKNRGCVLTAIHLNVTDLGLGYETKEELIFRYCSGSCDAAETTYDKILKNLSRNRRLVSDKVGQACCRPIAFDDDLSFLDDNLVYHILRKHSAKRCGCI
# human TGFβ1 protein [5] = biological target: T4, human TGFβ1 protein (human, UniProt P01137 279-390)
# T4 construct: Bought
# human GFRα1 protein [6] = biological target: T5, human GFRα1 protein (human, UniProt P56159 25-429, limits assumed)
# T5 construct: Bought
# T5 sequence (looked up): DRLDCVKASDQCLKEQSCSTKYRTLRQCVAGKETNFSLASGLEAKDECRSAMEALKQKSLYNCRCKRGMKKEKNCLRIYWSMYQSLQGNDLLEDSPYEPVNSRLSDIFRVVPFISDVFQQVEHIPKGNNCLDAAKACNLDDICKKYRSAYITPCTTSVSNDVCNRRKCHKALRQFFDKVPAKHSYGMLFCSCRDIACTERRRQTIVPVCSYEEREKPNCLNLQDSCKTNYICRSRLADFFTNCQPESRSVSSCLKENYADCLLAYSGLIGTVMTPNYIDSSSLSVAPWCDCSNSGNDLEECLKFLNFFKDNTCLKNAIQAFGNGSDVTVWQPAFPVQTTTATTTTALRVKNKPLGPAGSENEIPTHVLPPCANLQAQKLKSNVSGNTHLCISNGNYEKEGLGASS
# [7] = biological target: human GDF8 protein (human) (UniProt O14793)
# human Activin A protein [8] = biological target: T6, human Activin A protein (human, UniProt P08476 311-426)
# T6 construct: Bought; Activin A is by nature a dimer of inhibin beta A chains
# T6 sequence (looked up): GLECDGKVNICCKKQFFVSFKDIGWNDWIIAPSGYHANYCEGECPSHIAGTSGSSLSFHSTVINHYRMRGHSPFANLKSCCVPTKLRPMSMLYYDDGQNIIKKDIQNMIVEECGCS
# human GDF11 protein [9] = biological target: T7, human GDF11 protein (human, UniProt O95390 299-407)
# T7 construct: Bought
# T7 sequence (looked up): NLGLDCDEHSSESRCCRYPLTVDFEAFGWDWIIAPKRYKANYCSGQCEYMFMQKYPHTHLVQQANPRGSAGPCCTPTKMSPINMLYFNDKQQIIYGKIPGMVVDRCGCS
# human Activin B protein [10] = biological target: T8, human Activin B protein (human, UniProt P09529 293-407)
# T8 construct: Bought; Activin B is by nature a dimer of inhibin beta B chains
# T8 sequence (looked up): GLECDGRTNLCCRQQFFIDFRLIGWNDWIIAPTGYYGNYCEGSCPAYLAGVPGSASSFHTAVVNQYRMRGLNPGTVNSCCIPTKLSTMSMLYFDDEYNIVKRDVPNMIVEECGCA
# Human GDF15 protein [11] = biological target: T9, Human GDF15 protein (human, UniProt Q99988 197-308)
# T9 construct: Natural GDF15 is said to be a disulfide-linked homodimer; also called Human-GDF15-his
# T9 sequence: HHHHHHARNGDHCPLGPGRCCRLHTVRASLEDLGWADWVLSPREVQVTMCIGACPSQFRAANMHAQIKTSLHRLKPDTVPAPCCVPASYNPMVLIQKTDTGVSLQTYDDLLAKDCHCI
# human GDF2 protein [12] = biological target: T10, human GDF2 protein (human, UniProt Q9UK05 320-429)
# T10 construct: Bought
# T10 sequence (looked up): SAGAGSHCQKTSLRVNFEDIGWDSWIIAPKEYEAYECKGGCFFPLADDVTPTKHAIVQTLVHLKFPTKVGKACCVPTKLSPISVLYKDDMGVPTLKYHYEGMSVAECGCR
# human BMP2 protein [13] = biological target: T11, human BMP2 protein (human, UniProt P12643 283-396)
# T11 construct: Bought
# human GDF1 protein [14] = biological target: T12, human GDF1 protein (human, UniProt P27539 254-372, limits assumed)
# T12 construct: Bought
# T12 sequence (looked up): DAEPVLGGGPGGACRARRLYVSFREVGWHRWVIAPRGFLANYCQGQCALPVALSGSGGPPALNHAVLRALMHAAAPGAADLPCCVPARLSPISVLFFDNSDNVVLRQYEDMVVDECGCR
# human BMP4 protein [15] = biological target: T1, human BMP4 protein; remark: listed apart in the source
# [16] = biological target: human AMH protein (human) (UniProt P03971); remark: listed apart in the source
# human GDF3 protein [17] = biological target: T2, human GDF3 protein; remark: listed apart in the source
# human GDNF protein [18] = biological target: T3, human GDNF protein; remark: listed apart in the source
# human TGFβ1 protein [19] = biological target: T4, human TGFβ1 protein; remark: listed apart in the source
# human GFRα1 protein [20] = biological target: T5, human GFRα1 protein; remark: listed apart in the source
# [21] = biological target: human GDF8 protein (human) (UniProt O14793); remark: listed apart in the source
# human Activin A protein [22] = biological target: T6, human Activin A protein; remark: listed apart in the source
# human GDF11 protein [23] = biological target: T7, human GDF11 protein; remark: listed apart in the source
# human Activin B protein [24] = biological target: T8, human Activin B protein; remark: listed apart in the source
# Human GDF15 protein [25] = biological target: T9, Human GDF15 protein; remark: listed apart in the source
# human GDF2 protein [26] = biological target: T10, human GDF2 protein; remark: listed apart in the source
# human BMP2 protein [27] = biological target: T11, human BMP2 protein; remark: listed apart in the source
# human GDF1 protein [28] = biological target: T12, human GDF1 protein; remark: listed apart in the source
# T11 sequence (P12643 283-396 limits assumed): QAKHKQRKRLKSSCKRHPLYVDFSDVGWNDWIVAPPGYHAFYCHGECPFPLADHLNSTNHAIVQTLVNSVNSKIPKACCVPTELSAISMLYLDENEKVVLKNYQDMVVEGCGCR
# T4 sequence (P01137 279-390 limits assumed): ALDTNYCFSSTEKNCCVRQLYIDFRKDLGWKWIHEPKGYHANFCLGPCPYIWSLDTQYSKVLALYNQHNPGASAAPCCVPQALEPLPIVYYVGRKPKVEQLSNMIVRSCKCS
substance,measurement,setting,value
"IgG control (Sino Biological, Cat. No.: HG1K) (antibody)",OD value (OD 450 nm-620 nm),human BMP4 protein [1],0.0464
same,OD value (OD 450 nm-620 nm),[2],0.0569
same,OD value (OD 450 nm-620 nm),human GDF3 protein [3],0.0556
same,OD value (OD 450 nm-620 nm),human GDNF protein [4],0.0493
same,OD value (OD 450 nm-620 nm),human TGFβ1 protein [5],0.111
same,OD value (OD 450 nm-620 nm),human GFRα1 protein [6],0.0807
same,OD value (OD 450 nm-620 nm),[7],0.0485
same,OD value (OD 450 nm-620 nm),human Activin A protein [8],0.0474
same,OD value (OD 450 nm-620 nm),human GDF11 protein [9],0.0659
same,OD value (OD 450 nm-620 nm),human Activin B protein [10],0.082
same,OD value (OD 450 nm-620 nm),Human GDF15 protein [11],0.043
same,OD value (OD 450 nm-620 nm),human GDF2 protein [12],0.0444
same,OD value (OD 450 nm-620 nm),human BMP2 protein [13],0.055
same,OD value (OD 450 nm-620 nm),human GDF1 protein [14],0.101
same,OD value (OD 450 nm-620 nm),human BMP4 protein [15],0.0439
same,OD value (OD 450 nm-620 nm),[16],0.0465
same,OD value (OD 450 nm-620 nm),human GDF3 protein [17],0.04
same,OD value (OD 450 nm-620 nm),human GDNF protein [18],0.036
same,OD value (OD 450 nm-620 nm),human TGFβ1 protein [19],0.0376
same,OD value (OD 450 nm-620 nm),human GFRα1 protein [20],0.125
same,OD value (OD 450 nm-620 nm),[21],0.0351
same,OD value (OD 450 nm-620 nm),human Activin A protein [22],0.0524
same,OD value (OD 450 nm-620 nm),human GDF11 protein [23],0.038
same,OD value (OD 450 nm-620 nm),human Activin B protein [24],0.168
same,OD value (OD 450 nm-620 nm),Human GDF15 protein [25],0.0386
same,OD value (OD 450 nm-620 nm),human GDF2 protein [26],0.0622
same,OD value (OD 450 nm-620 nm),human BMP2 protein [27],0.0463
same,OD value (OD 450 nm-620 nm),human GDF1 protein [28],0.0416

# — EP4818204A1 (Nanjing Leads Biolabs Co., Ltd., dated 2026)
